Results reported in paper PMC10699790.

Target: HA-Halo-mGluR3 (rat), P31422
Test: single-molecule pulldown
Conditions: remark: other sources report otherwise

B1: HA-Halo-mGluR3, P31422 23-879 (receptor)
chain: LGDHNFMRREIKIEGDLVLGGLFPINEKGTGTEECGRINEDRGIQRLEAMLFAIDEINKDNYLLPGVKLGVHILDTCSRDTYALEQSLEFVRASLTKVDEAEYMCPDGSYAIQENIPLLIAGVIGGSYSSVSIQVANLLRLFQIPQISYASTSAKLSDKSRYDYFARTVPPDFYQAKAMAEILRFFNWTYVSTVASEGDYGETGIEAFEQEARLRNICIATAEKVGRSNIRKSYDSVIRELLQKPNARVVVLFMRSDDSRELIAAANRVNASFTWVASDGWGAQESIVKGSEHVAYGAITLELASHPVRQFDRYFQSLNPYNNHRNPWFRDFWEQKFQCSLQNKRNHRQVCDKHLAIDSSNYEQESKIMFVVNAVYAMAHALHKMQRTLCPNTTKLCDAMKILDGKKLYKEYLLKINFTAPFNPNKGADSIVKFDTFGDGMGRYNVFNLQQTGGKYSYLKVGHWAETLSLDVDSIHWSRNSVPTSQCSDPCAPNEMKNMQPGDVCCWICIPCEPYEYLVDEFTCMDCGPGQWPTADLSGCYNLPEDYIKWEDAWAIGPVTIACLGFLCTCIVITVFIKHNNTPLVKASGRELCYILLFGVSLSYCMTFFFIAKPSPVICALRRLGLGTSFAICYSALLTKTNCIARIFDGVKNGAQRPKFISPSSQVFICLGLILVQIVMVSVWLILETPGTRRYTLPEKRETVILKCNVKDSSMLISLTYDVVLVILCTVYAFKTRKCPENFNEAKFIGFTMYTTCIIWLAFLPIFYVTSSDYRVQTTTMCISVSLSGFVVLGCLFAPKVHIVLFQPQKNVVTHRLHLNRFSVSGTATTYSQSSASTYVPTVCNGREVLDSTTSSL
modifications: here or on the partner: Halo tag labeled with CA-SS-Alexa-488; Halo tag labeled with CA-SS-Alexa-488
With B1 the stoichiometry N was 2.
